Data on 34 variants can be found in the Human Domainome abundance scans (Beltran et al. 2025).

B1: Protein C-ets-1, residues 55 to 135; numbered along this chain, P14921 (parent)
chain: GFTKEQQRLGIPKDPRQWTETHVRDWVMWAVNEFSLKGVDFQKFCMNGAALCALGKDCFLELAPDFVGDILWEHLEILQKE

± gives the uncertainty stated by the source.

In this data set the parent is B1. Briefly: abundance fitness (aPCA) (normalised: wild type 0, dead -1); higher = more abundant; growth selection in yeast, the domain comes from the species named. The note with it: Homo sapiens.
GFTKEQQRLGIPKDPRQWTETHVRDWVMWAVGEFSLKGVDFQKFCMNGAALCALGKDCFLELAPDFVGDILWEHLEILQKE [N32G]: the abundance fitness was -0.018 ± 0.023.
As to GFTKEQQRLGIPKDPRQWTETHVRDWVMWAVEEFSLKGVDFQKFCMNGAALCALGKDCFLELAPDFVGDILWEHLEILQKE [N32E], the abundance fitness is -0.042 ± 0.043.
With GFTKEQQRLGIPKDPRQWTETHVRDWVMWAVCEFSLKGVDFQKFCMNGAALCALGKDCFLELAPDFVGDILWEHLEILQKE [N32C], the abundance fitness was -0.132 ± 0.044.
Under GFTKEQQRLGIPKDPRQWTETHVRDWVMWAVLEFSLKGVDFQKFCMNGAALCALGKDCFLELAPDFVGDILWEHLEILQKE [N32L] stands -0.179 ± 0.039; under GFTKEQQRLGIPKDPRQWTETHVRDWVMWAVFEFSLKGVDFQKFCMNGAALCALGKDCFLELAPDFVGDILWEHLEILQKE [N32F], -0.399 ± 0.073; under GFTKEQQRLGIPKDPRQWTETHVRDWVMWAVDEFSLKGVDFQKFCMNGAALCALGKDCFLELAPDFVGDILWEHLEILQKE [N32D], 0.046 ± 0.051.
As for GFTKEQQRLGIPKDPRQWTETHVRDWVMWAVAEFSLKGVDFQKFCMNGAALCALGKDCFLELAPDFVGDILWEHLEILQKE [N32A], the figure is -0.001 ± 0.032.
For the variant GFTKEQQRLGIPKDPRQWTETHVRDWVMWAVKEFSLKGVDFQKFCMNGAALCALGKDCFLELAPDFVGDILWEHLEILQKE [N32K], the abundance fitness was 0.028 ± 0.054.
On to GFTKEQQRLGIPKDPRQWTETHVRDWVMWAVHEFSLKGVDFQKFCMNGAALCALGKDCFLELAPDFVGDILWEHLEILQKE [N32H], for which the abundance fitness came to 0.032 ± 0.072.
GFTKEQQRLGIPKDPRQWTETHVRDWVMWAVIEFSLKGVDFQKFCMNGAALCALGKDCFLELAPDFVGDILWEHLEILQKE [N32I]: the abundance fitness was -0.193 ± 0.073.
As for GFTKEQQRLGIPKDPRQWTETHVRDWVMWAQNEFSLKGVDFQKFCMNGAALCALGKDCFLELAPDFVGDILWEHLEILQKE [V31Q], the figure is -0.126 ± 0.04; as for GFTKEQQRLGIPKDPRQWTETHVRDWVMWAANEFSLKGVDFQKFCMNGAALCALGKDCFLELAPDFVGDILWEHLEILQKE [V31A], 0.018 ± 0.037; as for GFTKEQQRLGIPKDPRQWTETHVRDWVMWATNEFSLKGVDFQKFCMNGAALCALGKDCFLELAPDFVGDILWEHLEILQKE [V31T], 0.006 ± 0.044.
For GFTKEQQRLGIPKDPRQWTETHVRDWVMWAENEFSLKGVDFQKFCMNGAALCALGKDCFLELAPDFVGDILWEHLEILQKE [V31E], the abundance fitness is -0.19 ± 0.053.
As for GFTKEQQRLGIPKDPRQWTETHVRDWVMWAYNEFSLKGVDFQKFCMNGAALCALGKDCFLELAPDFVGDILWEHLEILQKE [V31Y], the figure is -0.44 ± 0.066; as for GFTKEQQRLGIPKDPRQWTETHVRDWVMWANNEFSLKGVDFQKFCMNGAALCALGKDCFLELAPDFVGDILWEHLEILQKE [V31N], -0.401 ± 0.067; as for GFTKEQQRLGIPKDPRQWTETHVRDWVMWAMNEFSLKGVDFQKFCMNGAALCALGKDCFLELAPDFVGDILWEHLEILQKE [V31M], -0.069 ± 0.04.
As for GFTKEQQRLGIPKDPRQWTETHVRDWVMWACNEFSLKGVDFQKFCMNGAALCALGKDCFLELAPDFVGDILWEHLEILQKE [V31C], the figure is -0.013 ± 0.045.
As for GFTKEQQRLGIPKDPRQWTETHVRDWVMWAKNEFSLKGVDFQKFCMNGAALCALGKDCFLELAPDFVGDILWEHLEILQKE [V31K], the figure is -0.18 ± 0.054; as for GFTKEQQRLGIPKDPRQWTETHVRDWVMWALNEFSLKGVDFQKFCMNGAALCALGKDCFLELAPDFVGDILWEHLEILQKE [V31L], -0.326 ± 0.029.
As to GFTKEQQRLGIPKDPRQWTETHVRDWVMWAHNEFSLKGVDFQKFCMNGAALCALGKDCFLELAPDFVGDILWEHLEILQKE [V31H], the abundance fitness is -0.495 ± 0.071.
Under GFTKEQQRLGIPKDPRQWTETHVRDWVMWASNEFSLKGVDFQKFCMNGAALCALGKDCFLELAPDFVGDILWEHLEILQKE [V31S] stands -0.076 ± 0.03; under GFTKEQQRLGIPKDPRQWTETHVRDWVMWADNEFSLKGVDFQKFCMNGAALCALGKDCFLELAPDFVGDILWEHLEILQKE [V31D], -0.491 ± 0.055.
As for GFTKEQQRLGIPKDPRQWTETHVRDWVMWARNEFSLKGVDFQKFCMNGAALCALGKDCFLELAPDFVGDILWEHLEILQKE [V31R], the abundance fitness is -0.274 ± 0.027.
Under GFTKEQQRLGIPKDPRQWTETHVRDWVMWAFNEFSLKGVDFQKFCMNGAALCALGKDCFLELAPDFVGDILWEHLEILQKE [V31F] stands -0.645 ± 0.067; under GFTKEQQRLGIPKDPRQWTETHVRDWVMWAGNEFSLKGVDFQKFCMNGAALCALGKDCFLELAPDFVGDILWEHLEILQKE [V31G], -0.427 ± 0.03.
Under GFTKEQQRLGIPKDPRQWTETHVRDWVMWAINEFSLKGVDFQKFCMNGAALCALGKDCFLELAPDFVGDILWEHLEILQKE [V31I] stands -0.053 ± 0.07; under GFTKEQQRLGIPKDPRQWTETHVRDWVMWTVNEFSLKGVDFQKFCMNGAALCALGKDCFLELAPDFVGDILWEHLEILQKE [A30T], 0.003 ± 0.04.
As for GFTKEQQRLGIPKDPRQWTETHVRDWVMWQVNEFSLKGVDFQKFCMNGAALCALGKDCFLELAPDFVGDILWEHLEILQKE [A30Q], the figure is -0.183 ± 0.051; as for GFTKEQQRLGIPKDPRQWTETHVRDWVMWSVNEFSLKGVDFQKFCMNGAALCALGKDCFLELAPDFVGDILWEHLEILQKE [A30S], -0.062 ± 0.029.
Consider GFTKEQQRLGIPKDPRQWTETHVRDWVMWYVNEFSLKGVDFQKFCMNGAALCALGKDCFLELAPDFVGDILWEHLEILQKE [A30Y], for which the abundance fitness was -0.188 ± 0.13.
Under GFTKEQQRLGIPKDPRQWTETHVRDWVMWRVNEFSLKGVDFQKFCMNGAALCALGKDCFLELAPDFVGDILWEHLEILQKE [A30R] stands -0.643 ± 0.045; under GFTKEQQRLGIPKDPRQWTETHVRDWVMWPVNEFSLKGVDFQKFCMNGAALCALGKDCFLELAPDFVGDILWEHLEILQKE [A30P], -0.8 ± 0.074.
As for GFTKEQQRLGIPKDPRQWTETHVRDWVMWWVNEFSLKGVDFQKFCMNGAALCALGKDCFLELAPDFVGDILWEHLEILQKE [A30W], the figure is -0.195 ± 0.039.
